The target in this assay is Neorhodopsin (NeoR) rhodopsin module from Rhizoclosmatium globosum, residues 1-279 (Rhizoclosmatium globosum). Kind of assay: cryo-EM structure; single-particle cryo-EM of purified NeoR in LMNG/CHS, 50 mM Hepes pH 7.4, 100 mM NaCl, after two SEC steps (monodisperse, single oligomeric state); 4.80 Å map refined under C1; two AlphaFold2 monomers fitted into the map.

For 1 substance, stoichiometry N results are on record in article PMC12046560.

For the substance “Neorhodopsin (NeoR) rhodopsin module from Rhizoclosmatium globosum, residues 1-279 (domain or fragment)”, the stoichiometry N – broadly, a count of units in the complex or per binding partner – came to 2.
